According to patent publication US20220119534A1 (DRAGONFLY THERAPEUTICS, published 2022):
Values belong to the binder of their own block, whether it stands above or below them.

Experiments:
Human CLEC12A-His [1] = target: T1, Human CLEC12A-His (human, UniProt Q5QGZ9 65-265); assay: SPR Biacore 8K 37 C; TriNKET captured on anti-hFc chip, hCLEC12A-His as analyte; 1:1 fit; after 4 wks 40 C in HST pH 6.0, n=2
T1 construct: Recombinant soluble protein made in house (Dragonfly Tx); The hCLEC12A spot of the HuProt array is written under this molecule as well; also called hCLEC12A-His; hCLEC12A; not shown: His tag
T1 sequence: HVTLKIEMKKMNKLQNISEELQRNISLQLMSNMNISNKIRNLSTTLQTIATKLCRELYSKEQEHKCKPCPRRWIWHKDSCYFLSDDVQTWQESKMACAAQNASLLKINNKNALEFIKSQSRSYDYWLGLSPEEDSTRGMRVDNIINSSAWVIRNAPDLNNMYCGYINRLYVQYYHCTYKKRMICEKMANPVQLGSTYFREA

mFc-cNKG2D = target: T2, mFc-cNKG2D (cynomolgus monkey, UniProt P61252 73-216); assay: SPR Biacore 37 C; mFc-tagged cyno NKG2D dimer, TriNKET as analyte; steady state affinity fit; average of 4
T2 construct: extracellular domain; Made in house (Dragonfly Tx); also called recombinant cyno NKG2D extracellular domain (ECD); mFc-tagged cyno NKG2D dimer; not shown: mouse Fc tag
T2 sequence (looked up): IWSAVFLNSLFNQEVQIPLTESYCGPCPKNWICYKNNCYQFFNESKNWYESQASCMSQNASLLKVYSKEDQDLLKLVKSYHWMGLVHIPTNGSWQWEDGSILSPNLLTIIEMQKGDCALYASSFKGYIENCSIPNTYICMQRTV

Human CLEC12A-His [2] = target: T1, Human CLEC12A-His; assay: SPR Biacore 8K 37 C; TriNKET captured on anti-hFc chip, hCLEC12A-His as analyte; classical 1:1 fit
Protocol: Briefly, human Fc specific antibodies were covalently immobilized at a density ˜8000-10000 resonance units (RU) on carboxy methyl dextran matrix of a CM5 biosensor chip via amine-coupling chemistry to create an anti-hFc IgG chip. […] Association was monitored for 300 seconds and dissociation was monitored for 600 seconds. Surfaces were regenerated between cycles with three pulses of 10 mM glycine-HCl, pH 1.7 injected for 20 seconds at 100 μL/min. HBS-EP+ (1×) with 0.1 mg/mL BSA buffer was used throughout the experiment. Data were analyzed using Biacore 8K Insight Evaluation software (GE Healthcare).

mFc-hNKG2D = target: T3, mFc-hNKG2D (human, UniProt P26718 73-216); assay: SPR Biacore 8K 37 C; mFc-hNKG2D captured on anti-mFc chip, TriNKET as analyte; steady state fit; control sample, n=2
T3 construct: extracellular domain; Made in house (Dragonfly Tx); the order of tag and ECD follows the name mFc-hNKG2D; also called mFc-tagged human NKG2D; not shown: mouse Fc tag
T3 sequence (looked up): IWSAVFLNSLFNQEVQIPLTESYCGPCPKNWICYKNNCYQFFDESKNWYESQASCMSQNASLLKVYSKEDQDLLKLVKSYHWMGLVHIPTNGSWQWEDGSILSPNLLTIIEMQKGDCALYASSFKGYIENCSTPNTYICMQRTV

Human CLEC12A-His [3] = target: T1, Human CLEC12A-His; assay: SPR Biacore 8K 37 C; TriNKET captured on anti-hFc chip, hCLEC12A-His as analyte; 1:1 fit; after 4 wks 40 C in phosphate/citrate/NaCl pH 7.8, n=2
Protocol: Briefly, human Fc specific antibodies were covalently immobilized at a density ˜8000-10000 resonance units (RU) on carboxy methyl dextran matrix of a CM5 biosensor chip via amine-coupling chemistry to create an anti-hFc IgG chip. […] Association was monitored for 300 seconds and dissociation was monitored for 600 seconds. Surfaces were regenerated between cycles with three pulses of 10 mM glycine-HCl, pH 1.7 injected for 20 seconds at 100 μL/min. HBS-EP+ (1×) with 0.1 mg/mL BSA buffer was used throughout the experiment. Data were analyzed using Biacore 8K Insight evaluation software (GE Healthcare). The kinetic rate constants and overall affinity were obtained using 1:1 kinetic fit binding model (FIGS. 71A-71B).

De-glycosylated CLEC12A = target: T4, De-glycosylated CLEC12A (human, UniProt Q5QGZ9 65-265, treated with PNGase F (N-linked glycans removed)); assay: SPR, de-glycosylated CLEC12A; average of 3 replicates
T4 construct: Recombinant human CLEC12A after PNGase F; also called de-glycosylated hCLEC12A
T4 sequence: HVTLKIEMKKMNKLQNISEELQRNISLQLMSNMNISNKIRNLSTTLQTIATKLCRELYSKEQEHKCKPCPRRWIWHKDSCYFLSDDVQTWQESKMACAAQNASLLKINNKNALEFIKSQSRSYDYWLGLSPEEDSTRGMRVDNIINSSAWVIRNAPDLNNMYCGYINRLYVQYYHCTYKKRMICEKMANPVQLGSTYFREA

recombinant human FcRn [4] = target: T5, recombinant human FcRn (human, UniProt P55899 24-297; P61769 21-119); assay: SPR 25C, pH 6.0, steady state, average; pH 6.0; average of four replicates
T5 construct: also called hFcRn

recombinant human FcRn [5] = target: T5, recombinant human FcRn; assay: SPR 25C, pH 6.0, steady state; pH 6.0; first replicate

Kd (Human CLEC12A-His [1]): 1.69 nM | koff (Human CLEC12A-His [1]): 0.00214 s⁻¹ | kon (Human CLEC12A-His [1]): 1.24e+06 M⁻¹ s⁻¹ | Kd (mFc-cNKG2D): 828 nM | Kd (Human CLEC12A-His [2]): 0.8 nM | koff (Human CLEC12A-His [2]): 0.000895 s⁻¹ | kon (Human CLEC12A-His [2]): 1.11e+06 M⁻¹ s⁻¹ | Kd (mFc-hNKG2D): 791 nM | Kd (Human CLEC12A-His [3]): 1.14 nM | koff (Human CLEC12A-His [3]): 0.000948 s⁻¹ | kon (Human CLEC12A-His [3]): 829000 M⁻¹ s⁻¹
B1: F3'-1602 TriNKET (bispecific antibody, human IgG1, kappa)
chain: QLQLQESGPGLVKPSETLSLTCTVSGFSLTNYGLHWIRQPPGKCLEWIGVIWSGGKTDYNPSLKSRVTISKDTSKNQFSLKLSSVQAADTAVYYCAKYDYDDSLDYWGQGTLVTVSSGGGGSGGGGSGGGGSGGGGSDIQMTQSPSSLSASVGDRVTITCHASQNINFWLSWYQQKPGKAPKLLIYEASNLHTGVPSRFSGSGSGTRFTLTISSLQPEDIATYYCQQSHSYPLTFGCGTKLEIKGSDKTHTCPPCPAPELLGGPSVFLFPPKPKDTLMISRTPEVTCVVVDVSHEDPEVKFNWYVDGVEVHNAKTKPREEQYNSTYRVVSVLTVLHQDWLNGKEYKCKVSNKALPAPIEKTISKAKGQPREPRVYTLPPCRDELTKNQVSLTCLVKGFYPSDIAVEWESNGQPENNYKTTPPVLVSDGSFTLYSKLTVDKSRWQQGNVFSCSVMHEALHNHYTQKSLSLSPG
heavy: EVQLVESGGGLVKPGGSLRLSCAASGFTFSSYSMNWVRQAPGKGLEWVSSISSSSSYIYYADSVKGRFTISRDNAKNSLYLQMNSLRAEDTAVYYCARGAPIGAAAGWFDPWGQGTLVTVSSASTKGPSVFPLAPSSKSTSGGTAALGCLVKDYFPEPVTVSWNSGALTSGVHTFPAVLQSSGLYSLSSVVTVPSSSLGTQTYICNVNHKPSNTKVDKKVEPKSCDKTHTCPPCPAPELLGGPSVFLFPPKPKDTLMISRTPEVTCVVVDVSHEDPEVKFNWYVDGVEVHNAKTKPREEQYNSTYRVVSVLTVLHQDWLNGKEYKCKVSNKALPAPIEKTISKAKGQPREPQVCTLPPSRDELTENQVSLTCLVKGFYPSDIAVEWESNGQPENNYKTTPPVLDSDGSFFLYSWLTVDKSRWQQGNVFSCSVMHEALHNHYTQKSLSLSPG
light: DIQMTQSPSSVSASVGDRVTITCRASQGISSWLAWYQQKPGKAPKLLIYAASSLQSGVPSRFSGSGSGTDFTLTISSLQPEDFATYYCQQGVSFPRTFGGGTKVEIKRTVAAPSVFIFPPSDEQLKSGTASVVCLLNNFYPREAKVQWKVDNALQSGNSQESVTEQDSKDSTYSLSSTLTLSKADYEKHKVYACEVTHQGLSSPVTKSFNRGEC
notes: Trispecific F3' format: CLEC12A scFv-Fc paired with NKG2D Fab-Fc; Stressed and control samples of the stability studies are the same molecule; also called AB0237

Kd (De-glycosylated CLEC12A): 0.27 nM | koff (De-glycosylated CLEC12A): 0.000348 s⁻¹ | kon (De-glycosylated CLEC12A): 1.31e+06 M⁻¹ s⁻¹
B2: AB0192 TriNKET (other)
chain: EVQLVESGGGVVQPGGSLRLSCAASGFTFNAFGMHWVRQAPGKCLEWVAFISSGSTSIYYANTVKGRFTISRDNSKNTLYLQMNSLRAEDTAVYYCARDGYPTGGAMDYWGQGTSVTVSSGGGGSGGGGSGGGGSGGGGSDIQMTQSPSSLSASVGDRVTITCKASQDIYNYLSWFQQKPGKAPKPLIYRANILVSGVPSRFSGSGSGQDYTFTISSLQPEDIATYYCLQFDAFPFTFGCGTKLEIKGSDKTHTCPPCPAPELLGGPSVFLFPPKPKDTLMISRTPEVTCVVVDVSHEDPEVKFNWYVDGVEVHNAKTKPREEQYNSTYRVVSVLTVLHQDWLNGKEYKCKVSNKALPAPIEKTISKAKGQPREPRVYTLPPCRDELTKNQVSLTCLVKGFYPSDIAVEWESNGQPENNYKTTPPVLVSDGSFTLYSKLTVDKSRWQQGNVFSCSVMHEALHNHYTQKSLSLSPG
heavy: EVQLVESGGGLVKPGGSLRLSCAASGFTFSSYSMNWVRQAPGKGLEWVSSISSSSSYIYYADSVKGRFTISRDNAKNSLYLQMNSLRAEDTAVYYCARGAPIGAAAGWFDPWGQGTLVTVSSASTKGPSVFPLAPSSKSTSGGTAALGCLVKDYFPEPVTVSWNSGALTSGVHTFPAVLQSSGLYSLSSVVTVPSSSLGTQTYICNVNHKPSNTKVDKKVEPKSCDKTHTCPPCPAPELLGGPSVFLFPPKPKDTLMISRTPEVTCVVVDVSHEDPEVKFNWYVDGVEVHNAKTKPREEQYNSTYRVVSVLTVLHQDWLNGKEYKCKVSNKALPAPIEKTISKAKGQPREPQVCTLPPSRDELTENQVSLTCLVKGFYPSDIAVEWESNGQPENNYKTTPPVLDSDGSFFLYSWLTVDKSRWQQGNVFSCSVMHEALHNHYTQKSLSLSPG
light: DIQMTQSPSSVSASVGDRVTITCRASQGISSWLAWYQQKPGKAPKLLIYAASSLQSGVPSRFSGSGSGTDFTLTISSLQPEDFATYYCQQGVSFPRTFGGGTKVEIKRTVAAPSVFIFPPSDEQLKSGTASVVCLLNNFYPREAKVQWKVDNALQSGNSQESVTEQDSKDSTYSLSSTLTLSKADYEKHKVYACEVTHQGLSSPVTKSFNRGEC
notes: the condition stands under assay; also called AB0192 Lot AB0192-005

Kd (recombinant human FcRn [4]): 1400 nM | Kd (recombinant human FcRn [5]): 1300 nM
B3: F3'-1602 TriNKET (other)
chain: QLQLQESGPGLVKPSETLSLTCTVSGFSLTNYGLHWIRQPPGKCLEWIGVIWSGGKTDYNPSLKSRVTISKDTSKNQFSLKLSSVQAADTAVYYCAKYDYDDSLDYWGQGTLVTVSSGGGGSGGGGSGGGGSGGGGSDIQMTQSPSSLSASVGDRVTITCHASQNINFWLSWYQQKPGKAPKLLIYEASNLHTGVPSRFSGSGSGTRFTLTISSLQPEDIATYYCQQSHSYPLTFGCGTKLEIKGSDKTHTCPPCPAPELLGGPSVFLFPPKPKDTLMISRTPEVTCVVVDVSHEDPEVKFNWYVDGVEVHNAKTKPREEQYNSTYRVVSVLTVLHQDWLNGKEYKCKVSNKALPAPIEKTISKAKGQPREPRVYTLPPCRDELTKNQVSLTCLVKGFYPSDIAVEWESNGQPENNYKTTPPVLVSDGSFTLYSKLTVDKSRWQQGNVFSCSVMHEALHNHYTQKSLSLSPG
heavy: EVQLVESGGGLVKPGGSLRLSCAASGFTFSSYSMNWVRQAPGKGLEWVSSISSSSSYIYYADSVKGRFTISRDNAKNSLYLQMNSLRAEDTAVYYCARGAPIGAAAGWFDPWGQGTLVTVSSASTKGPSVFPLAPSSKSTSGGTAALGCLVKDYFPEPVTVSWNSGALTSGVHTFPAVLQSSGLYSLSSVVTVPSSSLGTQTYICNVNHKPSNTKVDKKVEPKSCDKTHTCPPCPAPELLGGPSVFLFPPKPKDTLMISRTPEVTCVVVDVSHEDPEVKFNWYVDGVEVHNAKTKPREEQYNSTYRVVSVLTVLHQDWLNGKEYKCKVSNKALPAPIEKTISKAKGQPREPQVCTLPPSRDELTENQVSLTCLVKGFYPSDIAVEWESNGQPENNYKTTPPVLDSDGSFFLYSWLTVDKSRWQQGNVFSCSVMHEALHNHYTQKSLSLSPG
light: DIQMTQSPSSVSASVGDRVTITCRASQGISSWLAWYQQKPGKAPKLLIYAASSLQSGVPSRFSGSGSGTDFTLTISSLQPEDFATYYCQQGVSFPRTFGGGTKVEIKRTVAAPSVFIFPPSDEQLKSGTASVVCLLNNFYPREAKVQWKVDNALQSGNSQESVTEQDSKDSTYSLSSTLTLSKADYEKHKVYACEVTHQGLSSPVTKSFNRGEC
notes: CLEC12A scFv-Fc, NKG2D A49MI Fab-Fc, human IgG1 Fc; also called AB0237
